Results: the supplement of paper PMC10567573

B1: MTMR15 (parent)
chain: FSPDFTLRNTLKSTSEDSLVKQEC

Variants of: B1
Test: protein stability index of a GFP-peptide fusion (GPS, HEK-293T) (PSI 1-6); higher = more stable
Settings: c terminus: a fixed tail appended
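Note: lentivirally expressed fusions sorted by FACS into six bins by GFP to DsRed ratio, PSI derived from sequencing read proportions per bin multiplied by bin number.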

Variant	protein stability index
FSPDFTLRNTLKSTSEDSLVKQES [C24S]	1.85
FSPDFTLRNTLKSTSEDSLVKQET [C24T]	1.98
FSPDFTLRNTLKSTSEDSLVKQEN [C24N]	2.16
FSPDQTLRNTLKSTSEDSLVKQEC [F5Q]	3.5
FSPDPTLRNTLKSTSEDSLVKQEC [F5P]	3.59
FSPDKTLRNTLKSTSEDSLVKQEC [F5K]	3.79
FSPDYTLRNTLKSTSEDSLVKQEC [F5Y]	2.61
FSPDLTLRNTLKSTSEDSLVKQEC [F5L]	3.54
FSPDTTLRNTLKSTSEDSLVKQEC [F5T]	3.17
FSPDMTLRNTLKSTSEDSLVKQEC [F5M]	3.62
FSPDGTLRNTLKSTSEDSLVKQEC [F5G]	1.99
FSPDETLRNTLKSTSEDSLVKQEC [F5E]	4.83
FSPDFTLRNTLKSTSEDSLVDQEC [K21D]	2.23
FSPDFTLRNTLKSTSEDSLVNQEC [K21N]	2.94
FSPDFTLRNTLKSTSEDSLVWQEC [K21W]	2.4
FSPDFTLRNTLKSTSEDSLVYQEC [K21Y]	2.62
FSPDFTARNTLKSTSEDSLVKQEC [L7A]	1.99
FSPDFTYRNTLKSTSEDSLVKQEC [L7Y]	2.27
FSPDFTFRNTLKSTSEDSLVKQEC [L7F]	2.04
FSPDFTDRNTLKSTSEDSLVKQEC [L7D]	3.03
FSPDFTPRNTLKSTSEDSLVKQEC [L7P]	2.54
FSPDFTMRNTLKSTSEDSLVKQEC [L7M]	3.06
FSPDFTGRNTLKSTSEDSLVKQEC [L7G]	2.48
FSPIFTLRNTLKSTSEDSLVKQEC [D4I]	2.05

Variant	protein stability index
FSPWFTLRNTLKSTSEDSLVKQEC [D4W]	1.96
FSPVFTLRNTLKSTSEDSLVKQEC [D4V]	2.01
FSPGFTLRNTLKSTSEDSLVKQEC [D4G]	2.65
FSPMFTLRNTLKSTSEDSLVKQEC [D4M]	1.61
FSPPFTLRNTLKSTSEDSLVKQEC [D4P]	4
FSPKFTLRNTLKSTSEDSLVKQEC [D4K]	2.23
FSPDFTLRNTLKSFSEDSLVKQEC [T14F]	2.82
FSPDFTLRNTLKSQSEDSLVKQEC [T14Q]	2.31
FSPDFTLRNTLKSMSEDSLVKQEC [T14M]	2.05
FSPDFTLRNTLKSLSEDSLVKQEC [T14L]	2
FSPDFTLRNTLKSASEDSLVKQEC [T14A]	1.54
FSPDFTLRNTLKSISEDSLVKQEC [T14I]	1.62
FSPDFTLRNALKSTSEDSLVKQEC [T10A]	2.16
FSPDFTLRNRLKSTSEDSLVKQEC [T10R]	2.15
FSPDFTLRNHLKSTSEDSLVKQEC [T10H]	3.86
FSPDFTLRNELKSTSEDSLVKQEC [T10E]	2.37
FSPDFTLRNSLKSTSEDSLVKQEC [T10S]	1.82
FSPDFTLRNYLKSTSEDSLVKQEC [T10Y]	2.27
FSPDFTLRNTLMSTSEDSLVKQEC [K12M]	1.81
FSPDFTLRNTLQSTSEDSLVKQEC [K12Q]	1.92
FSPDFTLRNTLGSTSEDSLVKQEC [K12G]	2.24
FSPDFTLRNTLYSTSEDSLVKQEC [K12Y]	2.38
FSPDFTLRNTLCSTSEDSLVKQEC [K12C]	2.34
FSPDFTLRNTLWSTSEDSLVKQEC [K12W]	3.33

Variant	protein stability index
FSPDFTLRNTLRSTSEDSLVKQEC [K12R]	1.71
FSPDFTLRNTLPSTSEDSLVKQEC [K12P]	1.77
FSPDFTLRNTLKMTSEDSLVKQEC [S13M]	2.02
FSPDFTLRNTLKTTSEDSLVKQEC [S13T]	1.53
FSPDFTLRNTLKYTSEDSLVKQEC [S13Y]	2.35
FSPDFTLRNTLKHTSEDSLVKQEC [S13H]	2.42
FSPDFTLRNTLKRTSEDSLVKQEC [S13R]	3.03
FSPDFTLRNTLKETSEDSLVKQEC [S13E]	2.11
FSPDFTLRNTLKLTSEDSLVKQEC [S13L]	1.83
FSPDFTLRNTLKQTSEDSLVKQEC [S13Q]	2.31
FSPDFTLRNTLKGTSEDSLVKQEC [S13G]	1.81
FSPDFTLRNTLKSTSEDSFVKQEC [L19F]	2.14
FSPDFTLRNTLKSTSEDSRVKQEC [L19R]	2.15
FSPDFTLRNTLKSTSEDSEVKQEC [L19E]	2.1
FSPDFTLRNTLKSTSEDSAVKQEC [L19A]	1.7
FSPDFTLRNTLKSTSEDSTVKQEC [L19T]	2.56
FSPDFTLRNTLKSTSEDSVVKQEC [L19V]	1.66
FSPDFTLRNTLKSTSEDSDVKQEC [L19D]	2.37
FSPDFTLRNTLKSTSEDSIVKQEC [L19I]	2.5
FSPDFTLRNTLKSTAEDSLVKQEC [S15A]	1.64
FSPDFTLRNTLKSTMEDSLVKQEC [S15M]	1.99
FSPDFTLRNTLKSTCEDSLVKQEC [S15C]	2.71
FSPDFTLRNTLKSTDEDSLVKQEC [S15D]	1.95
FSPDFTLRNTLKSTYEDSLVKQEC [S15Y]	1.83

Variant	protein stability index
FSPDFTLRNTLKSTFEDSLVKQEC [S15F]	2.63
FSPDFTLRNTLKSTEEDSLVKQEC [S15E]	1.82
FSPDFTLRNTLKSTVEDSLVKQEC [S15V]	1.48
FSPDFTLRNTLKSTREDSLVKQEC [S15R]	2.34
FSPDFTLRNTLKSTNEDSLVKQEC [S15N]	1.43
FSCDFTLRNTLKSTSEDSLVKQEC [P3C]	2.64
FSTDFTLRNTLKSTSEDSLVKQEC [P3T]	2.76
FSKDFTLRNTLKSTSEDSLVKQEC [P3K]	2.26
FSMDFTLRNTLKSTSEDSLVKQEC [P3M]	1.99
FSRDFTLRNTLKSTSEDSLVKQEC [P3R]	1.98
FSEDFTLRNTLKSTSEDSLVKQEC [P3E]	3.14
FSWDFTLRNTLKSTSEDSLVKQEC [P3W]	1.97
QSPDFTLRNTLKSTSEDSLVKQEC [F1Q]	4.96
DSPDFTLRNTLKSTSEDSLVKQEC [F1D]	5.25
RSPDFTLRNTLKSTSEDSLVKQEC [F1R]	4.98
ESPDFTLRNTLKSTSEDSLVKQEC [F1E]	5.32
TSPDFTLRNTLKSTSEDSLVKQEC [F1T]	5.28
ASPDFTLRNTLKSTSEDSLVKQEC [F1A]	3.9
WSPDFTLRNTLKSTSEDSLVKQEC [F1W]	4.39
LSPDFTLRNTLKSTSEDSLVKQEC [F1L]	5.21
SSPDFTLRNTLKSTSEDSLVKQEC [F1S]	4.81
YSPDFTLRNTLKSTSEDSLVKQEC [F1Y]	2.04
